Values quoted from earlier work as cited in article PMC5874815.

Target: EGFR (Homo sapiens) (UniProt P00533)

Kd: 2 nM
Substance: EGF (from UniProt P01133)
